Molecular target: T1, human 5T4 oncofoetal glycoprotein (human, UniProt Q13641 32-420)
T1 construct: whole, on cells; also called h5T4; trophoblast glycoprotein
T1 sequence (looked up): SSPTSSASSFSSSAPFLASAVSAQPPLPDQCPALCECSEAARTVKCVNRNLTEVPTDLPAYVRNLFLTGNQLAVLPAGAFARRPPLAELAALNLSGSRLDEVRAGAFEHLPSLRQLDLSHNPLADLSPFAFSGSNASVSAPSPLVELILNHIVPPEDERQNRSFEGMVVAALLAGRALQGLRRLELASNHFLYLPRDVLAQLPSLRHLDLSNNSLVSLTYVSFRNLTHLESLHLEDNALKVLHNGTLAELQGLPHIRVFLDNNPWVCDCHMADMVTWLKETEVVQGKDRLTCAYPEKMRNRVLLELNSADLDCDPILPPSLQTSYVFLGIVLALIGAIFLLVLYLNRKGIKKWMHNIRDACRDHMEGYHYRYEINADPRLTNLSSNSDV
Assay: summary of the pull down and Western blot experiments
Experimental: Denistometric scans of western blots between approximately 60-140 kDa (5T4 probe) and 30-140 kDa (CXCR4 probe). […] Under reducing conditions, the epitope recognized by 5T4 antibodies is destroyed but CXCR4 at 46 kD is detectable on the reduced gels of the 5T4 pulldown, (not shown). Thus, specific pull downs but not the controls, probed with either anti-CXCR4 or anti-5T4 detected molecules migrating ≈130 kDa in all the tumor lines.
Western blots were carried out using a BioRad Mini-PROTEAN Tetra (Thermo Fisher) supplemented with protease and phosphatase inhibitor cocktails (Thermo Fisher). RIPA buffer (50 mM Tris-Cl pH 7.4, 150 mM NaCl, 1% NP40, 0.25% Na-deoxycholate, 1 mM PMSF and protease and phosphatase inhibitor cocktail) was used as an alternative method of cell lysis. The compound PD98059 (Thermo Fisher) was applied to cells to inhibit MEK1 at 100 μM for 1 h prior to CXCL12 stimulation. Other primary antibodies used were ERK1/2, phospho-ERK1/2 (Thr202/Tyr204/Thr185/Tyr187), AKT and phospho-AKT (Thr308) (Cell Signalling Technology) at 1:1000. Following secondary antibody labelling using appropriate HRP conjugates (AbSerotec) hybridizing bands were detected using SuperSignal West Dura (Thermo Fischer). […]

B1: human CXCR4 (receptor, UniProt P61073 1-352, looked up)
chain: MEGISIYTSDNYTEEMGSGDYDSMKEPCFREENANFNKIFLPTIYSIIFLTGIVGNGLVILVMGYQKKLRSMTDKYRLHLSVADLLFVITLPFWAVDAVANWYFGNFLCKAVHVIYTVNLYSSVLILAFISLDRYLAIVHATNSQRPRKLLAEKVVYVGVWIPALLLTIPDFIFANVSEADDRYICDRFYPNDLWVVVFQFQHIMVGLILPGIVILSCYCIIISKLSHSKGHQKRKALKTTVILILAFFACWLPYYIGISIDSFILLEIIKQGCEFENTVHKWISITEALAFFHCCLNPILYAFLGAKFKTSAQHALTSVSRGSSLKILSKGKRGGHSSVSTESESSSFHSS
notes: whole, on cells; Endogenous CXCR4 of human tumour cell lines, tested as unreduced solubilised membrane fractions (Western blot, pull down); also called chemokine (C-X-C motif) receptor 4
binding result: binds

Reference: patent US20120282183A1 (CANCER RESEARCH TECHNOLOGY, published 2012)
